Results taken from the nanobody polyreactivity screen of Harvey et al. (2022).

Test: yeast display, Sf9 membrane polyspecificity reagent, FACS + sequencing; frameworks hold sequencing errors
Outline: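 A synthetic nanobody library was expressed on Saccharomyces cerevisiae BJ5465 by galactose induction for 36–48 hours. The library was stained for 1 hour at 4 °C with 10% biotinylated, detergent-solubilized Sf9 membrane reagent and enriched with streptavidin microbeads before FACS. Low and high (top ~1%) gates were set on anti-HA fluorescence for expression and streptavidin fluorescence for reagent binding, and each polyreactivity label reflects the gate of origin.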
With “QVQVVESGGGFVQAGGSLRLSCAASGFTYYSYAMGWYRQAPGKEREFVAAGSTYYADSVKGRFTISRDNAKNTVYLQMNSLTPEDTAVYYCAADPWIYVQSYGYWGQGTQVTVSS” the “polyreactivity (PSR sort gate)” value was “low polyreactivity”.
In the case of “QVQLVESGGGLVQAGGSLRLSCAASGRIYRYVMGWYRQAPGKERELVATITGRGGSTYYADSVKGRFTISRDNAKHTVYLQMNILKPEDTAVYYCAAAGRGSWTTYRFDYWGQGTQVTVSS”, the “polyreactivity (PSR sort gate)” value is reported as “high polyreactivity”.
For “QVQLVESGGGLVQAGGSLRLSCAASGRIFRGYAMGWYRQAPGKERELVAAISGSGGSTYYADSVKGRFTISRDNAKNTVYLQMNSLKPEDTAVYYCNAGWYFYGETTDDYWGQGTQVTVSS”, the “polyreactivity (PSR sort gate)” value was “low polyreactivity”.
For “QVQLVESGGGLVQAGGSLRLSSAASGSTFKYYAMGCYRQAPGKERELVAAITNDGSTSYADSVKGRFTISRDNAKNTVYLQMNSLTPEDTAVYYCNARSKYPSYFSSMGYWGQGTQVTVSS”, the “polyreactivity (PSR sort gate)” value was “high polyreactivity”.
With “QVQLVESGGGLVQAGGSLRLSCAASGSNFVVNAMGWYRQAPGKERELVAAITQSGGSTFYADSVKGRFTISRDNAKNTVYLLMNSLKPEDSAVYYWGQGTQVTVSS” the “polyreactivity (PSR sort gate)” value was “low polyreactivity”.
With “QVQLVESGGGLVQAGGSLRLSCAASGLTFHAYAMGWYRQAPGKEREFVAAITRSGSSTSYAYSVKGRFTISRDNAKNTVYLQMNSLKPEDTAVYYCAAQGSRKYRNDYWGQGTQVTVSS” the “polyreactivity (PSR sort gate)” value was “high polyreactivity”.
With “QVQLVESARGLVKAGGSLLLSCAAYVSIFNHYAMGWYRQAPGKESELVARITNRSGNTYYADSVKGRFTISRDNAKNTGYLQLNSLKGEDTEVYYCAATKSLGRYNMDYWGPGTQVTVSS” the “polyreactivity (PSR sort gate)” value was “low polyreactivity”.
In the case of “QVQLVESGGGLVQAGGSLRLSCDASGSIFYRNVMGWYRQAPGKERELVAAISGRGGSTYYADSVKGRFTISRDNAKNTVYLQMNSLKPEDTAVYYCAADKGYRYISYYYWGQGTQVTVSS”, the “polyreactivity (PSR sort gate)” value is reported as “high polyreactivity”.
With “QVQLVESGGGLVQAGGSLRLSCAASGSTFVTNAMGWYRQAPGKEREFVAAISNSSGSTYYADSVKGRFTISRDNEKNTVYLQMNSLKPEDTAVYYCNATPDDWLQEDYWGQGTQVTVSS” the “polyreactivity (PSR sort gate)” value was “low polyreactivity”.
For “QVQLVESGGGLVQAGGSLRLSCAASGFIFARNTMGWYRQSPGKERELVAAITKSGGSTYYADSVKGRFTISRDNAKNTVYLQMNSLKPEDTAVYYCAKDPVELSPADWRADYDYWGQGTQVTVSS”, the “polyreactivity (PSR sort gate)” value was “low polyreactivity”.
For “HVLLQESGGGLVQAGGTLRLSCAASGTITTDIRMGWYRLAPGKEREFVASIDGCSTTYYADSVKGRFTISRDNAKNTVYLQMNSLKPEDTAMYYCAAREATEFYLFYWGQGTQVTVSS”, the “polyreactivity (PSR sort gate)” value was “low polyreactivity”.
With “QVQLVESGGGLVQAGGSLRLNCAASGGIFRGYAMVWYRQAPGKERELVATITYSGTSTYYADSVKGRFTISRDYAKNTVYLQMNSLKPEYTAVYYCNADWWFKYDYWGQGTQVTVSS” the “polyreactivity (PSR sort gate)” value was “low polyreactivity”.
In the case of “QVQLVESGGGLVQAGGSLRLSCAASGRTFYSNAMGWYRQAPGKERELVAAISSSGTSTRYADSVKGRFTISRDNAKNTVYLQMNSLKPEDTAVYYCAAVGWYHDYYWGQGTQVTVSS”, the “polyreactivity (PSR sort gate)” value is reported as “high polyreactivity”.
With “QVQLVESGGGLVQAGGSLRLSCAASGSTFTANAMGWYRQAPGTERELVAAISRSGGSTYYADSVKGRFTISRDNAKYTVYLQLNSLKPEDTAVYYCAAECPLFSPPDGEDYWGQGTLVTVSS” the “polyreactivity (PSR sort gate)” value was “low polyreactivity”.
In the case of “QVQLVESGGGLVQAGGSLRLSCAASGSTFGYYAMGWYRQAPGKERELVATINRSGGSTYYADSVKGRFTISRDNAKYTVYLQMNSLKPEDTAVYYCNKLAYAGFRYIGSGYWGQGTQVTVSS”, the “polyreactivity (PSR sort gate)” value is reported as “low polyreactivity”.
With “QVQLVETGGGLVHAGGSLRLSCAASGSIFGYYTMGWYIQAPGKERELFAAITYSGGSTYYADSVKGRFTISRDNAKNTVYLQMNSLKPDDTAVYYCNAKSAAHRYVRRHDYWGQGTQVTVSS” the “polyreactivity (PSR sort gate)” value was “low polyreactivity”.
With “QVQLVESGGGLVQAGGSLRLSCAASGRIFIDYAMGWYRQAPGKERELVATITSSGGSTYYADSVKGRFTISRDNAKNTVYLQMNSLKPEDTAVYYCNKEGSYDYDFWGQGTQVTVSS” the “polyreactivity (PSR sort gate)” value was “low polyreactivity”.
With “QVQLVESGGGLVQAGGSLRLSCAASGSTFWKYVKGWYRQAPGKERELVAAISNSGVNTYYADSVKGRFTISRDNAKNTVYLQMNSLKTEDTAVYYCAADRCGYEYWGQGTQVTVSS” the “polyreactivity (PSR sort gate)” value was “high polyreactivity”.
With “QDQHVESGVGLVQAGGSLRLSCAASGSIFGNYAMGWYRQAPGKERELVAAIRVSDGRTYDADSVKGRFTISRDNAKNTVYLQMNSLKPEDTAVYYCAAESESSYGPYDYWGQGTQVTVSS” the “polyreactivity (PSR sort gate)” value was “low polyreactivity”.
With “QVQLVESGGGLVQAGGSLRLSCAASGSTFRVNAMGWYRQAPGKEREFVAGISFGGGSTYYADSVKGRFTISRDNAKNTVYLQMNSLKPEDTAVYYCNARGKGSGAVRYNYWGQGTQVTVSS” the “polyreactivity (PSR sort gate)” value was “high polyreactivity”.
In the case of “QVQLVESGGGLVQAGGSLRLSCAASGSIFWRYAMGWYRQAPGKERELVAAITWSGGTSYADSVKGRFTLSRDNAKNTVYLQMNSLKQEDTAVYYCIADGLSYYLYDYWGQGTQVTVSS”, the “polyreactivity (PSR sort gate)” value is reported as “low polyreactivity”.
For “QVQLVESGGGLVQAGGSLRLSCAASGSTFPDYAMGWYRQAPGKERELVAVITIRGGSTYYADSVKGRFTISRDNAKNTVYLQMNSLKPEDTAVYYCAATGQLQGWYDMYYWGQGTQVTVSS”, the “polyreactivity (PSR sort gate)” value was “low polyreactivity”.
With “QVQLVESGGGLVQAGGSLRLSCAASGLIFADYVMGWYRQAPGKERELVVTINQGGGSTYYADSVKGRFTISRDNAKNTVYLQMNSLKPEDTAVYYCAATWALLYAIFESYDYWGQGTQVTVSS” the “polyreactivity (PSR sort gate)” value was “low polyreactivity”.
For “QVQLVESGGGLVQAGGSLRLSCAASGFTFTYYAMGWYRQAPGKERELVAAITRRGGRTYYADSVKGRFTISRDNAKNTVYLQMNSLKPEDTAVYYCNADEYGGSTGRKGRYNYWGQGTQVTVSS”, the “polyreactivity (PSR sort gate)” value was “low polyreactivity”.
In the case of “QVQLVESGGGLVQAGGSLRLSCAASGRTFYGYAMGWYRQAPGKERELVATISWSGGRTNYADSVKGRFTISRDNAKNTVYLQMNSLKPEDTAVYYCAAPYRLSKYDYWGQGTEVTVSS”, the “polyreactivity (PSR sort gate)” value is reported as “high polyreactivity”.
With “QVQLVESGGGLVQAGGSLRLSCAASGFTFRINAMGWYRQAPGKERELVAAISWSGGSTYYADSVKGRFTISRDNAKNTVYLQMNSLKPEDTAFYYCNKVQSSRYRSQRTFQYGYWGQGTQVTVSS” the “polyreactivity (PSR sort gate)” value was “high polyreactivity”.
In the case of “QVQLVESGGGLVQAGGSLRLSCAASGSIFAVNPMGWYRQAPGKERELVASITSGGSTNYADSVKGRFTISRDNAKIRVYLQMNRLKPEDTAVYYCNADSVRAVSRYDYWGQGTQVTVSS”, the “polyreactivity (PSR sort gate)” value is reported as “low polyreactivity”.
For “RVQLVESGGGLVQAGGSLRLSCAASGRIFAQYPMGWYRKAPRKERELLAAITTTGRTYYADSVKGRFTISRDNAKNTVYLQMNSLKPEDTAVSYCAVGYHAPNVSTSDPRYDYWGQGTQVTVSS”, the “polyreactivity (PSR sort gate)” value was “low polyreactivity”.
With “QVQLVESGGGLVQAGGSLRLSCAASGRTFYFNTMGWYRQAPGKERELVATISWSGGRTYYADSVKGRFTISRDNAKNTVYLQMNSLKPEDTAVYYCAAVRYRGFDYWGQGTQVTVSS” the “polyreactivity (PSR sort gate)” value was “high polyreactivity”.
With “QVQLVESGGGLVQAGGSLRLSCAASGSTFLRNAMGWYRQAPGKERELVATISRTGGTTYYADSVKGRFSISRDNAKTTVYLQMNSLKPEDTAVYYCAAYSKYGQHYDYWGQGTQVTVSS” the “polyreactivity (PSR sort gate)” value was “high polyreactivity”.
With “QVQLVESGGGLVQAGGSLRLSCAASGSIFEVNAMGLYRQAPGKERELVAAISCSGGSTYYADSVKGRFTISRDNAKNTVYLQMNSLKPEDTAVYYCAADWRQGLWYGYYYWGQGTQVTVSS” the “polyreactivity (PSR sort gate)” value was “low polyreactivity”.
In the case of “QVQLVDSGGGLVQAGGSLRLTCAASARTFHYYAMGWYREAPGKERELVAAITSSGGSTYADSVKGRFTISRDNAKNTVYLQMNSLKPEDTAVYYCARDRYDNPYDQELDYWGQGTQVTVSS”, the “polyreactivity (PSR sort gate)” value is reported as “low polyreactivity”.
For “QVQLVESGGGLVQAGGSLRLSCAASGRTFYGYAMGWSRQAPGKERELVAAISVSGGGTYYADSVKGRFTISRDNAKYTVYLQMNSLKPEDTAVYYCAAAVYERPRDYYYWGQGTQVTVSS”, the “polyreactivity (PSR sort gate)” value was “low polyreactivity”.
In the case of “QVQLVESGGGLVQAGGSLLLSCAASGITFYGNAKGWDRQAPGKERELVAAITFSGGITYYADSVKGRFTISRDNAKNTVYLQMNRLKPEDTAVYYCATDPIGGWTRPQRYGDDYWGQGTQLTVSS”, the “polyreactivity (PSR sort gate)” value is reported as “low polyreactivity”.
For “QVQLVESGGGLVQAGGSLRLSCAASGLIFGRYAMGWYRQAPGKERELVAAITGRGGSTYYADSVKGRFTISRDNAKNTVYLQMNSLKPEDTAVYYCNKVYNPKSYIQYDYWGQGTQVTVSS”, the “polyreactivity (PSR sort gate)” value was “high polyreactivity”.
With “QVQLVESGGGLVQAGGSLRLSCAASGFIFRGYAMGWYRQAPGKERELVAAISRSGGSTYYADSVKGRFTISRDNAKNTVYLQMNSLKPEDTAVYYCAARNSPGFPGDYWGQGTQVTVSS” the “polyreactivity (PSR sort gate)” value was “high polyreactivity”.
In the case of “QVQLVESGGGLVQAGGSLRLSCAASGRIFKRNVMGWYRQAPGKERELVAAITLRGGSTYYADSVKGRFTISRDNAKNTVYLQMNSLKPEDTAVYYCAAVQGTYYWDDYWGQGTQVTVSS”, the “polyreactivity (PSR sort gate)” value is reported as “low polyreactivity”.
For “QVQLVESGGGLVQAGGSLRLSCAASGRTFAFYAMGWYRPAPGKERDLVASISSSGDRTYYADSVKGRFTISRDNAKNTVYLQMNSLKPEDTAVYYCNRVEGGAYGSNFDYWGQATQVTVSS”, the “polyreactivity (PSR sort gate)” value was “high polyreactivity”.
For “QVQLVESGGGLVQAGGSLRLSCAASGSIFYANAMGWYRQAPRKERELVAAISWSGGRTYYADSVKGRFTISRDNAKNTVYLQMISLKPEDTAVYFCAAVTRGLRFVYWGQGTQVTVSS”, the “polyreactivity (PSR sort gate)” value was “high polyreactivity”.
In the case of “QVQLVESGGGLVQAGGSLRLSCAASGFTFYRYAMGSYRQAPGKERELVAAITFRGDSTYYADSVKGRFTISRDNAKNTVYLQMNSLKPEDTAVYYCAADRPSGWYSYLSLYIVRRGYWGQGTQVTVSS”, the “polyreactivity (PSR sort gate)” value is reported as “low polyreactivity”.
In the case of “QVQLVESGGGLVQAGGSLRLSCAASGRTFEYNAMGWYRQAPGKERELVATIRYSGTSTYADSVKGRFTISRDNAKNTVYFQMNSLKPEDTAVYYCAKQVRYYGYKYNYWGQGTQVTVSS”, the “polyreactivity (PSR sort gate)” value is reported as “high polyreactivity”.
With “QVQLVESGGGLVQAGGSLRLSCAASGYTFSSYAMGWYRQAPGKERELVAAITIGGGTNYADSVKGRFTISRDNAKNTVYLQMNSLKPEDTAVYYCNRDVALLEHPVPKKEFGYWGQGTQVTVSS” the “polyreactivity (PSR sort gate)” value was “low polyreactivity”.
With “QVQLVESGGGLVQAGGSLRLSCAASGNTFLYYAMGWYRQAPGKEMELVASINLSDGCTYYADSVKGRFTISRDNAKNTVYFQMTSLKPEDTAVYYCAAVFGGYTIYDYWGQGTQVTVSS” the “polyreactivity (PSR sort gate)” value was “low polyreactivity”.
